These results are taken from publication PMC4330387.

The target of one data set is T1, GST-ZFDBD-ZBTB2 (human, UniProt Q8N680 254-468).
T1 sequence: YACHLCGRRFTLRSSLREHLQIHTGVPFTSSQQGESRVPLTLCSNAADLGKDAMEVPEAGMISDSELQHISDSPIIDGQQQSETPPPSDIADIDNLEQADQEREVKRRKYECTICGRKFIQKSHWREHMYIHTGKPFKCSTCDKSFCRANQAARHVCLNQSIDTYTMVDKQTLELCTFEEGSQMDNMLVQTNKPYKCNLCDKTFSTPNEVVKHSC
Put plainly: EMSA.

A further data set deals with Sp1 (recombinant) (UniProt P08047 1-785). As to the kind of experiment: EMSA.
Chain of Sp1 (recombinant) (P08047 whole entry): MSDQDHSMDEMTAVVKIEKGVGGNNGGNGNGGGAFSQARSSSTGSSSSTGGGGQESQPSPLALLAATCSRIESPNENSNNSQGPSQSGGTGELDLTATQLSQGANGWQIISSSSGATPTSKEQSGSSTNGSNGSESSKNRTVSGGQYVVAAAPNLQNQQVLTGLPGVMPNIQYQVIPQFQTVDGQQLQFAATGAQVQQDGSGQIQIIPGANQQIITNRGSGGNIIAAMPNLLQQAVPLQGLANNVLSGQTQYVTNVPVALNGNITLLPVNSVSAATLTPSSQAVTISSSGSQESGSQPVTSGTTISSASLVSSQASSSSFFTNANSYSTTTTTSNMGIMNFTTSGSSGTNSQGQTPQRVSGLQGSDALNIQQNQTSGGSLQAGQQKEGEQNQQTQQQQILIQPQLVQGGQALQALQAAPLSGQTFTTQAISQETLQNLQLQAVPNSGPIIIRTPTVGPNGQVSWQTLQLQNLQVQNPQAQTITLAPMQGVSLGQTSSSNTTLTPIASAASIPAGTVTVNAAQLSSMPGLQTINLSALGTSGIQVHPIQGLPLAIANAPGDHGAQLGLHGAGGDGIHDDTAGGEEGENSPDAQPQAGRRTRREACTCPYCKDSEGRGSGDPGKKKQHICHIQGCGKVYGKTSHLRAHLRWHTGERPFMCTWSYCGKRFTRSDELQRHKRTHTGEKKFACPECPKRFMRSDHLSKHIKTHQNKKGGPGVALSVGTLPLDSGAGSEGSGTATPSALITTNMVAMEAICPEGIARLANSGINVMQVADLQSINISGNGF

B1: GC-box #3 EMSA probe (dsDNA)
DNA 1: GATCTTTCCCTGCGCGGGGCGGGCGGCCGCAGCCC
DNA 2: GGGCTGCGGCCGCCCGCCCCGCGCAGGGAAAGATC
For the molecule B1, the binding result in the data set with GST-ZFDBD-ZBTB2 and in the data set with Sp1 (recombinant) was “binds” throughout.
